What was measured:
[1] = molecular target: RsaA(723/3XPilin12), RsaA with a 3X tandemly repeated P. aeruginosa pilin epitope inserted at amino acid 723
[2] = molecular target: T1, RsaA, wild-type S-layer protein monomer of C. crescentus
T1 chain: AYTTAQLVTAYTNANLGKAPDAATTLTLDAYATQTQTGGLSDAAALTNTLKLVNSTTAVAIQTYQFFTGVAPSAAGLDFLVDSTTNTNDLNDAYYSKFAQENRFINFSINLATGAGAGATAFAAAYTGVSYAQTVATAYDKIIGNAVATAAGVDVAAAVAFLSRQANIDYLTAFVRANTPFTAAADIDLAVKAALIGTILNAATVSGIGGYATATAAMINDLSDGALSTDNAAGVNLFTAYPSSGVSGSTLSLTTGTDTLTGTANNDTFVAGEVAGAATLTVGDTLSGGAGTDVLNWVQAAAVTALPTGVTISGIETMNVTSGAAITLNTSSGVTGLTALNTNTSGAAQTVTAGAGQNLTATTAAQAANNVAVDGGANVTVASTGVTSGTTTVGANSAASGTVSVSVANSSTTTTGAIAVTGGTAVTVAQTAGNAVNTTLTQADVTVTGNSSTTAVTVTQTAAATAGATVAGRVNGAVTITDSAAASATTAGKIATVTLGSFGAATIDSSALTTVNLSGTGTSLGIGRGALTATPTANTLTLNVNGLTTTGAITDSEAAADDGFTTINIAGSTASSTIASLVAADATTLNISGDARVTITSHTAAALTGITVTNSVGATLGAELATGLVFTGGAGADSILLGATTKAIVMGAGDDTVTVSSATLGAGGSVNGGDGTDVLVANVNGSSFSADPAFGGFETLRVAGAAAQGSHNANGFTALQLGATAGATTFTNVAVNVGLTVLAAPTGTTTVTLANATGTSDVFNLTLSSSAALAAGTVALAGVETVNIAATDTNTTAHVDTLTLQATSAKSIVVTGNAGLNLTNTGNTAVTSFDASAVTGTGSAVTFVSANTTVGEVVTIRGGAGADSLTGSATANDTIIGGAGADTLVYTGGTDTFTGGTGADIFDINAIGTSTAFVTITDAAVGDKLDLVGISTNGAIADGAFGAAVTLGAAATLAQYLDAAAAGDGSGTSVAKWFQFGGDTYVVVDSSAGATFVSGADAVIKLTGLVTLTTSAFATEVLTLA

[3] = molecular target: RsaA(723/VP2C), RsaA with a 112 amino acid segment of the VP2 surface glycoprotein of infectious pancreatic necrosis virus inserted at amino acid 723
[4] = molecular target: T2, RsaA(485/IHNVG20), full-length RsaA hybrid protein carrying the 20 amino acid IHNV-G peptide at amino acid 485
T2 chain: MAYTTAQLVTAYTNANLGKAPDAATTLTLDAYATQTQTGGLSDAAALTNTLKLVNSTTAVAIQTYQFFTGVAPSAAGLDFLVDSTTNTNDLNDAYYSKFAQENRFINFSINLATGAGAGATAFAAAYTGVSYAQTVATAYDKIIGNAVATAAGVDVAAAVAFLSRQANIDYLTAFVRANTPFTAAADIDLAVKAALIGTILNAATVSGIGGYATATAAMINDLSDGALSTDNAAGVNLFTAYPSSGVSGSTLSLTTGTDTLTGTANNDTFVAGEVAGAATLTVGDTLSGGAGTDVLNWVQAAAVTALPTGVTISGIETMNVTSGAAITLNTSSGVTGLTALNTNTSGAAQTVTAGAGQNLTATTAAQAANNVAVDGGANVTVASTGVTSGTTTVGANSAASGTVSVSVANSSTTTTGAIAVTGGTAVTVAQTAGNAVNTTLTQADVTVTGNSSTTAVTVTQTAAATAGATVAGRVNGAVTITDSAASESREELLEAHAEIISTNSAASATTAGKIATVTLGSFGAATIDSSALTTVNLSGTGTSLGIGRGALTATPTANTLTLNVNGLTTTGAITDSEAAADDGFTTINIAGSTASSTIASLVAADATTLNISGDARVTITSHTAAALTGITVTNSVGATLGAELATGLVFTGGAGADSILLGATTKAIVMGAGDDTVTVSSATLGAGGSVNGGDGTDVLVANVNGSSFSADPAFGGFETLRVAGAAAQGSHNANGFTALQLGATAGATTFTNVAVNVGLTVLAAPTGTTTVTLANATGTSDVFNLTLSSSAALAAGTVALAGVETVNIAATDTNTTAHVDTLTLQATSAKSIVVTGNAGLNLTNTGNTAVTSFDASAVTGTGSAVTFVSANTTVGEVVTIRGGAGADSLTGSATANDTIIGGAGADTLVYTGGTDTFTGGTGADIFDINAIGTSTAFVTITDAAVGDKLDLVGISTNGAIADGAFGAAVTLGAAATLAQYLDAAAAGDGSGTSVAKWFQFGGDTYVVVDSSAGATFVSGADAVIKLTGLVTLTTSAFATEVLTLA

B1: Sap (S-layer associated protease), native Caulobacter crescentus metalloprotease (protein)
chain: MCSQCERYGLNLHGDDVAPAVSGGEGPYAFVDADSRVGTVDGKKSLTVPEAALQLLRSEPGWSNQFLVPATVTYAFRATAPASMPSDTGGFSQFNAAQILQAEKALQAWSDVANITFVRVGQGTSGEAAYSDNASILFANFSTGSEGSAGFAYYPGNPAASSRSGDVWIKSTAGYNTNPTGSNYGGMVLVHELGHAIGIAHPSEYNASADDTLTYAVNATYYQDSRQYTVMSYFSEANTGGSFGGAYASSPLLDDIAAAQLAYGANMTTRTGDTVYGFNSTAGREWFAATSSSTRLVFAVWDAGGVDTLDFSGYRVAQTIDLRAGYFSSVGGLKGNVTIAMNAVIENAIGGSAADTINGNAVDNRLTGGAGADILDGGRGVDTAVFSGAYGNYTLTAATNGAWSVLDRVGTDATDTLANIEFLAFTDRTVTLVDSRVATAISNILRLQTFSASAEPLSKSLAASMAAGASHSDAIGQVSKTALSTSGVAVLAYQFFTGKTPTAAGMDYLVNPDGVNANNLNSAYYQSFNLENRYINFAVNLGKIGEGATKFLADYGGLSLFDATRKAYATIFGLTPTDDKVRALIDGRTDYFAAYGQDGPNGQGTKAAMVGWLMAEAGKADIGVYAKSAGAFFADQATKNVYGVDLIGVYAKPEYNLI
Q: How did the “degradation of the hybrid protein in Sap+ JS4000 against Sap- JS4015 (SDS-PAGE of low-pH extracts)” value [1] turn out when B1 was run?
A: In all instances significant degradation of the hybrid full-length rsaA protein occurred in a wild-type host (JS4000) while none was detected in the Sap^- JS4015 strain

Q: What about the “proteolytic cleavage (SDS-PAGE of low-pH extracts from Sap+ JS4000)” value [2] of the same protein?
A: Native RsaA (98 kDa) was not subjected to cleavage

Q: And the “degradation of the hybrid protein in Sap+ JS4000 against Sap- JS4015 (SDS-PAGE of low-pH extracts)” value [3]?
A: In all instances significant degradation of the hybrid full-length rsaA protein occurred in a wild-type host (JS4000) while none was detected in the Sap^- JS4015 strain

Q: What about the “proteolytic phenotype (cleavage of the hybrid protein; SDS-PAGE of low-pH extracts, complementation of Sap- JS4015 with the sap gene)” value [4] of the same protein?
A: When pBBR1MCS:Kmsap was introduced into JS4015, the proteolytic phenotype was restored

Source: US20050032194
